Tests used:
Test in all cases: SIMPL ELISA, bait-IN/prey-CIC
[1] = biological target: CXCR2 (prey, CIC format) (human) (UniProt P25025)
[2] = biological target: T1, ORC4 (prey, CIC format) (human) (UniProt O43929)
T1 sequence (looked up): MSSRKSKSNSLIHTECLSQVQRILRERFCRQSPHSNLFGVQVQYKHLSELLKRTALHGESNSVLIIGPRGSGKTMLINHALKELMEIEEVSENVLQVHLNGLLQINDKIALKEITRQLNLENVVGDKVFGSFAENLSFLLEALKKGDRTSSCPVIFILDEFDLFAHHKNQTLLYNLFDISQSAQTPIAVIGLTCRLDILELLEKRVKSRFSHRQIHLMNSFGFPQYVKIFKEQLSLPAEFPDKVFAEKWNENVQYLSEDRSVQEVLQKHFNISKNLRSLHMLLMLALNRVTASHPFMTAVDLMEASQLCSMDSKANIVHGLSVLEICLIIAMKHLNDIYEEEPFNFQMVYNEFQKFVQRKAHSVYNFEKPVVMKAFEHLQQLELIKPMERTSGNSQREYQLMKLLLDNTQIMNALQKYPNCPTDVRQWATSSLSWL

[3] = biological target: T2, MAP2K5 (prey, CIC format) (human) (UniProt Q13163)
T2 sequence (looked up): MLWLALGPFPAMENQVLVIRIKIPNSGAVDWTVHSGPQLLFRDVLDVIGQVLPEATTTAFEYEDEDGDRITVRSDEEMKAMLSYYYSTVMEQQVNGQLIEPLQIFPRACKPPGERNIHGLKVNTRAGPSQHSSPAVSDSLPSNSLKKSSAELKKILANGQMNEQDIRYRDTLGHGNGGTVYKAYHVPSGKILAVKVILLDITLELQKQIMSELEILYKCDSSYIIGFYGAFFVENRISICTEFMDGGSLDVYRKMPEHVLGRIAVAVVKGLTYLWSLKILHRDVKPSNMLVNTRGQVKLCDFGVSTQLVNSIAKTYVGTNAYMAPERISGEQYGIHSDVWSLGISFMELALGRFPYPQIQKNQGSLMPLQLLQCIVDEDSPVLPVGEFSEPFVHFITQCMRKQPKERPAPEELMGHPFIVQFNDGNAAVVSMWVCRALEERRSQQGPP

[4] = biological target: SMAD4 (prey, CIC format) (human) (UniProt Q13485)
[5] = biological target: SKP2 (prey, CIC format) (human) (UniProt Q13309)
[6] = biological target: BTRC (prey, CIC format) (human) (UniProt Q9Y297)
[7] = biological target: T3, NTF4 (prey, CIC format) (human) (UniProt P34130)
T3 sequence (looked up): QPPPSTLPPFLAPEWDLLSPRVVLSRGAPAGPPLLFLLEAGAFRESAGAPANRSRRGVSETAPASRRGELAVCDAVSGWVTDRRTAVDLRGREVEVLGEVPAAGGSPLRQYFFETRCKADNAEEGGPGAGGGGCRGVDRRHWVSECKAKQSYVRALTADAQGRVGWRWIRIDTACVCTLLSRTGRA

[8] = biological target: NFE2L1 (prey, CIC format) (human) (UniProt Q14494)
[9] = biological target: T4, MAD1L1 (prey, CIC format) (human) (UniProt Q9Y6D9)
T4 sequence (looked up): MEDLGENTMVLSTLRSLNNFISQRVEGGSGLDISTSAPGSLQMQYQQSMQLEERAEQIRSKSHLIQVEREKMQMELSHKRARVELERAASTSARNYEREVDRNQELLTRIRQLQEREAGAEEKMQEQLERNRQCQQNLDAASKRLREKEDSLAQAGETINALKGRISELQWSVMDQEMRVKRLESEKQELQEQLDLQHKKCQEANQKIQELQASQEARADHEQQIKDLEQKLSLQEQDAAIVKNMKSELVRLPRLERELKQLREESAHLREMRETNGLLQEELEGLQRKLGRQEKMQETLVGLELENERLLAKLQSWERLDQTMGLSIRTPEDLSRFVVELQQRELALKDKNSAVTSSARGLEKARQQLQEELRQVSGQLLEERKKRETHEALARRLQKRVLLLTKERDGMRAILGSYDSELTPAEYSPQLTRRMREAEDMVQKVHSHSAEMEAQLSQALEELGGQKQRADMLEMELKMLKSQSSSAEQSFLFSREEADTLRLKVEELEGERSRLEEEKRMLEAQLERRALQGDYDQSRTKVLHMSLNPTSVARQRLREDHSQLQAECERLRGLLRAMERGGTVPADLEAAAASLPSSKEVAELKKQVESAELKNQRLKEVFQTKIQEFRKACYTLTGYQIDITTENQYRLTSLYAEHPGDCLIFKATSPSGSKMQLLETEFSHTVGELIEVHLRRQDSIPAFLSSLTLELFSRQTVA

[10] = biological target: T5, CASP7 (prey, CIC format) (human) (UniProt P55210)
T5 sequence (looked up): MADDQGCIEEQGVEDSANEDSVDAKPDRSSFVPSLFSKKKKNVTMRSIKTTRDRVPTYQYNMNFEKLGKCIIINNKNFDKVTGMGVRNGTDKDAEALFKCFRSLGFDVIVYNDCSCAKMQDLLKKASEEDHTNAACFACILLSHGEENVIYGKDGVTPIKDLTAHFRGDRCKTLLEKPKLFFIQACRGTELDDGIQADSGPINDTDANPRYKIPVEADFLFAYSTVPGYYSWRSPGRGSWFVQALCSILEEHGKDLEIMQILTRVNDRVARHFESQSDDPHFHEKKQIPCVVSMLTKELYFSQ

[11] = biological target: RAN (prey, CIC format) (human) (UniProt P62826)

Sequence of CXCR2 (prey, CIC format) (human) (P25025 whole entry): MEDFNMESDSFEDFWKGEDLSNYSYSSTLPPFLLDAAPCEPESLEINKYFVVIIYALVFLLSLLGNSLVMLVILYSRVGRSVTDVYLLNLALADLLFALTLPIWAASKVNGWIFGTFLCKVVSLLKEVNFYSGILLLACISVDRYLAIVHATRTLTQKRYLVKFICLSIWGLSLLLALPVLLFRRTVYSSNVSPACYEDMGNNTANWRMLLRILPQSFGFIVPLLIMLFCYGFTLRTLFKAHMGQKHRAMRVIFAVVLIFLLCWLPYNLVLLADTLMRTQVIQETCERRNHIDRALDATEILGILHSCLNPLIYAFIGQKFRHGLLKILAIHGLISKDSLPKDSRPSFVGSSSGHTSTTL
Sequence of NFE2L1 (prey, CIC format) (human) (Q14494 whole entry): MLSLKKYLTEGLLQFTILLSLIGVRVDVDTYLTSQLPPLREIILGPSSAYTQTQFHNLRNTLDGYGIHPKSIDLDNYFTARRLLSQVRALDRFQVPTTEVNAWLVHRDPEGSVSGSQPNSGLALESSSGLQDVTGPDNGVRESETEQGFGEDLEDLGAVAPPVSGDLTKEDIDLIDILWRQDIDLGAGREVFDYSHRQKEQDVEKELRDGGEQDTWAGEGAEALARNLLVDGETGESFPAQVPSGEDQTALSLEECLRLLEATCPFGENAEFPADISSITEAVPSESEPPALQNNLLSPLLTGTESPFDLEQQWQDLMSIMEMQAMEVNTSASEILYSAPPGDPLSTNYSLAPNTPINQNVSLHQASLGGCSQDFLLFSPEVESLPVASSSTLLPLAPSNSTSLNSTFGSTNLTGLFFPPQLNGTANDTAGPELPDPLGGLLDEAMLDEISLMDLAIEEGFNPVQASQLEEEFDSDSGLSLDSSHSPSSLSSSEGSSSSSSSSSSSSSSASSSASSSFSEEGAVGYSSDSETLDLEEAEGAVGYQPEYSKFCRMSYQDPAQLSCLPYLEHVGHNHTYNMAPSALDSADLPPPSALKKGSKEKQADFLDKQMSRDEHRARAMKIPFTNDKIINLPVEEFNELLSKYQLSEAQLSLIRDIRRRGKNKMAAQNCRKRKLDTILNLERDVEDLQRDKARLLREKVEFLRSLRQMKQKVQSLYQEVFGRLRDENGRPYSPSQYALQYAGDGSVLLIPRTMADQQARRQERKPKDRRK
Sequence of SKP2 (prey, CIC format) (human) (Q13309 whole entry): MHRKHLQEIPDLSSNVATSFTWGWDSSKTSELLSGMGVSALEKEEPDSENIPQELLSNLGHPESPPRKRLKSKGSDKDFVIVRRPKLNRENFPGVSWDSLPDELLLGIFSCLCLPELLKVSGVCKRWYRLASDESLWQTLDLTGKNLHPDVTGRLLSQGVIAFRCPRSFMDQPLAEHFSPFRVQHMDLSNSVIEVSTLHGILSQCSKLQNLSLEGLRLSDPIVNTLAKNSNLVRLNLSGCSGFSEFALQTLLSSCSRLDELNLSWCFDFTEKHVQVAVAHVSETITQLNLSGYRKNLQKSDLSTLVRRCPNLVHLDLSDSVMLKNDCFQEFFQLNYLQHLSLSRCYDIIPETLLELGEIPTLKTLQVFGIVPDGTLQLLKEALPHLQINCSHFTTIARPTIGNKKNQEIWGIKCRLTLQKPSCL
Sequence of SMAD4 (prey, CIC format) (human) (Q13485 whole entry): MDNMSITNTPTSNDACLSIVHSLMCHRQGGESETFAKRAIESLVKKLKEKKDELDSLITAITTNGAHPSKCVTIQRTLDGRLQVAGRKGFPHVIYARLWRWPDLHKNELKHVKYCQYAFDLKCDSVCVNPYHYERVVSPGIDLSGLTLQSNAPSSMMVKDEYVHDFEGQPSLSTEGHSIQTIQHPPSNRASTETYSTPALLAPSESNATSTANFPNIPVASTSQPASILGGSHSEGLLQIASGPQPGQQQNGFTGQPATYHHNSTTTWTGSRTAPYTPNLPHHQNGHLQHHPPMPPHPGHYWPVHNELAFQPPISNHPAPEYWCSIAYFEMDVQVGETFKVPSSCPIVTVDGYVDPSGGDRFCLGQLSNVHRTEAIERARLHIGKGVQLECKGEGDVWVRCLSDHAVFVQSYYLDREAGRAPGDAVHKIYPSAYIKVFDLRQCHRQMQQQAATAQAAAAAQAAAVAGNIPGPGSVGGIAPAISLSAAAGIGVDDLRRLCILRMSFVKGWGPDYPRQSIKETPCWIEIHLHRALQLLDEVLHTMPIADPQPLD
Sequence of BTRC (prey, CIC format) (human) (Q9Y297 whole entry): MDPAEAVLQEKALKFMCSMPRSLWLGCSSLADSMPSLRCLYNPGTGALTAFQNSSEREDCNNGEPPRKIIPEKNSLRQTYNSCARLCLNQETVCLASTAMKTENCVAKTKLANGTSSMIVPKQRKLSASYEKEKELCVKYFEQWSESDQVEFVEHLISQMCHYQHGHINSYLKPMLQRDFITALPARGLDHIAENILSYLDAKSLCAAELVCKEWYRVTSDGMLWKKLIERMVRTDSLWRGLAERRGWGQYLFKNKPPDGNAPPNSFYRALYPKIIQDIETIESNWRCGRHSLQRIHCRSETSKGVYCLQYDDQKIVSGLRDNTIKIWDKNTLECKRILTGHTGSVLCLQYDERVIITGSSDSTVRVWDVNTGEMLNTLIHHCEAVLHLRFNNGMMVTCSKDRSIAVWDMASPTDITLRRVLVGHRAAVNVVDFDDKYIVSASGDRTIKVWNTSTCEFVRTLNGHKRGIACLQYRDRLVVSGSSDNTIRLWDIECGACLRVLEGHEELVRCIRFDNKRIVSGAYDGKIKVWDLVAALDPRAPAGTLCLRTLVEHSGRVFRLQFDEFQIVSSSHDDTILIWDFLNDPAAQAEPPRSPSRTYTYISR
Sequence of RCC1 (bait, IN format) (P18754 whole entry): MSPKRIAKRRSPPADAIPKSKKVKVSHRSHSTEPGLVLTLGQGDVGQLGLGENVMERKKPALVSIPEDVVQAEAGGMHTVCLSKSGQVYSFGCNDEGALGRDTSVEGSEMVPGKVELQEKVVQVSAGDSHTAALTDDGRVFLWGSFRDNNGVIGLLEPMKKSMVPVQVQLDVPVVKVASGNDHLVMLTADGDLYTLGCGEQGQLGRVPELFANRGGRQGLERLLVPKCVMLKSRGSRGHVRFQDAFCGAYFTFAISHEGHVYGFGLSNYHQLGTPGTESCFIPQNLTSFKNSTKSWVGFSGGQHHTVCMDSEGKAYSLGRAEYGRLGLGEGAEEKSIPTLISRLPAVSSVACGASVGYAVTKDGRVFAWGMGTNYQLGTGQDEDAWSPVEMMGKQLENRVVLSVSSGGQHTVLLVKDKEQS

In the case of “CXCL1 (bait, IN format) (from UniProt P09341 35-107) (ligand)”, the PLU mean [1] was 0.178, the PLU mean [2] was 0.103 and the PLU mean [3] was 0.27. The PLU mean [4] was 0.101.

With “SKP1A (bait, IN format) (from UniProt P63208 1-163)” the PLU mean [5] was 0.376, the PLU mean [1] was 0.107 and the PLU mean [6] was 1.26.

“MAD2L1 (bait, IN format) (from UniProt Q13257 1-205)” was tested, and the PLU mean [7] was 0.133, the PLU mean [8] was 0.0819 and the PLU mean [9] was 2.52.

“RCC1 (bait, IN format) (from UniProt P18754 1-421)” was tested, and the PLU mean [10] was 0.125 and the PLU mean [11] was 0.748.

— US20220229068A1, “DETECTION OF PROTEIN TO PROTEIN INTERACTIONS” (THE GOVERNING COUNCIL OF THE UNIVERSITY OF TORONTO, priority 2019, published 2022)
